Measurements as given in patent US20190134153A1, “IMMUNOMODULATORY EFFECT OF INHALED KINASE INHIBITOR PEPTIDES IN LUNG” (MOERAE MATRIX, INC., priority 2017, published 2019).

Experiments:
Test in all cases: Kinase Profiling Assay
Assay type in all cases: biochemical
Conditions in all cases: 100 μM
CaMKIIδ(h) = CaMKIIδ(h) (Homo sapiens, UniProt Q13557)
MARK1(h) = MARK1(h) (Homo sapiens, UniProt Q9P0L2)
CDK6/cyclinD3(h) = CDK6/cyclinD3(h) (Homo sapiens, UniProt Q00534)
Bmx(h) = molecular target: T1, Bmx(h) (Homo sapiens, UniProt P51813)
T1 sequence (P51813 1-675): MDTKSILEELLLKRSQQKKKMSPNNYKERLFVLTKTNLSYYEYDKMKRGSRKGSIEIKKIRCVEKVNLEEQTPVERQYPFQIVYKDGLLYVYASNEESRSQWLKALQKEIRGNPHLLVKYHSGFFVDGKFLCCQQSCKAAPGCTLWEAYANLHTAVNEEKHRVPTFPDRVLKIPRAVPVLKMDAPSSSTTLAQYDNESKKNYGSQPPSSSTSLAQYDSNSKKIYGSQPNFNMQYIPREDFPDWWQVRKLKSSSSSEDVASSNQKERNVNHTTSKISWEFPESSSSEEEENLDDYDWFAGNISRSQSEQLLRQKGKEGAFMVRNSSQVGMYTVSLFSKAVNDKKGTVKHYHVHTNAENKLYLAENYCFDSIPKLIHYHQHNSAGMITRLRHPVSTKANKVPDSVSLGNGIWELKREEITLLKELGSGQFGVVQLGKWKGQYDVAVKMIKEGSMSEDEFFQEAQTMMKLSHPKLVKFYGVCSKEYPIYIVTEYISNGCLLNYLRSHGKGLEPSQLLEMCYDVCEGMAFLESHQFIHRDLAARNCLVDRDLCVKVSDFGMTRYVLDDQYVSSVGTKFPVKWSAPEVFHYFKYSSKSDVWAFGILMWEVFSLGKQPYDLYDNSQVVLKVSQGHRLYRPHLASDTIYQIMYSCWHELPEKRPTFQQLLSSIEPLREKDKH

Flt1(h) = Flt1(h) (Homo sapiens, UniProt P17948)
MST2(h) = molecular target: T2, MST2(h) (Homo sapiens, UniProt Q13188)
T2 sequence (Q13188 1-491): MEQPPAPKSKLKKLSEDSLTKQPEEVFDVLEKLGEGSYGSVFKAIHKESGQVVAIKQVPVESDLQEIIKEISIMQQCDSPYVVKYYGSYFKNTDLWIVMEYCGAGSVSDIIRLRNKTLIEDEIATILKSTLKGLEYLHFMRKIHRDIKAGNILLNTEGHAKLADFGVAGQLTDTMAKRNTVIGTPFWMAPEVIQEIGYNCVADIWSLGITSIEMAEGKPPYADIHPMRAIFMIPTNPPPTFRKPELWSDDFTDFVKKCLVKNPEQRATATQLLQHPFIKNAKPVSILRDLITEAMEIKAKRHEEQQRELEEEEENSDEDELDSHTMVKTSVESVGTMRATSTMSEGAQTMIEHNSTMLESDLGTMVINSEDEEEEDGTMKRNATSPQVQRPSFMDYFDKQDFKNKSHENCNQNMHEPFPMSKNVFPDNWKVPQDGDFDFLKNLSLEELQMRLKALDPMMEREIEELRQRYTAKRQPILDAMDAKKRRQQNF

CDK2/cyclinA(h) = CDK2/cyclinA(h) (Homo sapiens, UniProt P24941)
TAO2(h) = molecular target: T3, TAO2(h) (Homo sapiens, UniProt Q9UL54)
T3 sequence (Q9UL54 1-1235): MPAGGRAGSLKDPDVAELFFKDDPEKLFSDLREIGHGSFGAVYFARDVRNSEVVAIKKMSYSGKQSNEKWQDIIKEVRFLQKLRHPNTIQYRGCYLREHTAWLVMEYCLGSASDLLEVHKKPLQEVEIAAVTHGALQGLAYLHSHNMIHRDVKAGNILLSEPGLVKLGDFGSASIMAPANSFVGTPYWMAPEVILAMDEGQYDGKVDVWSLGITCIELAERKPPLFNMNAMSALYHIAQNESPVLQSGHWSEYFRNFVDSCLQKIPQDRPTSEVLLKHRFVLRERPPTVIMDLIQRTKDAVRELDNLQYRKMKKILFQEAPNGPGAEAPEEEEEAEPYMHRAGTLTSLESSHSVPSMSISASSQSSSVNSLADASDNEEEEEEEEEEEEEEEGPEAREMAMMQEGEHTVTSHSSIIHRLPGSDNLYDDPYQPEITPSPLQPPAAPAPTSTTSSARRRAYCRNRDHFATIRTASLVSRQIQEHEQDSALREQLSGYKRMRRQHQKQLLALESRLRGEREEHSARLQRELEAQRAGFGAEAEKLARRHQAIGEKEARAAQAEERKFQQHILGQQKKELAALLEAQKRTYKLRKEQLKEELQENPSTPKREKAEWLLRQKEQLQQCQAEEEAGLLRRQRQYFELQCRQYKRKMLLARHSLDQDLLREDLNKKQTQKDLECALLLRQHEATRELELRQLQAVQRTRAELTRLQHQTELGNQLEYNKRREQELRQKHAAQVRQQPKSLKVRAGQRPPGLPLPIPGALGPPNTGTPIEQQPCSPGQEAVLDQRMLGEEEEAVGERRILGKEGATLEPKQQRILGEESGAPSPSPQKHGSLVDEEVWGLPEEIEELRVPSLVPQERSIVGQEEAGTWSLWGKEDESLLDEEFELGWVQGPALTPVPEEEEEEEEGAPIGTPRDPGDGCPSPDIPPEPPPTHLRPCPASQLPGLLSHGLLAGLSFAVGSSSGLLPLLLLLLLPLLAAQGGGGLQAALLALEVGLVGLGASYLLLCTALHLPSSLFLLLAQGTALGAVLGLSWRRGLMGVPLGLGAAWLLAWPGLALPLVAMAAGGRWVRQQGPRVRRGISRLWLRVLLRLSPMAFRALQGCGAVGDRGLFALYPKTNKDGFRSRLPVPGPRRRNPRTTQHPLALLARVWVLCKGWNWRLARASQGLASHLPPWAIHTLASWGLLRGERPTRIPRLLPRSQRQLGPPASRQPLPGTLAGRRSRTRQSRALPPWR

PAK2(h) = PAK2(h) (Homo sapiens, UniProt Q13177)
CK1δ(h) = CK1δ(h) (Homo sapiens, UniProt P48730)
Abl(h) = Abl(h) (Homo sapiens, UniProt P00519)
Sequence of Abl(h) (P00519 whole entry): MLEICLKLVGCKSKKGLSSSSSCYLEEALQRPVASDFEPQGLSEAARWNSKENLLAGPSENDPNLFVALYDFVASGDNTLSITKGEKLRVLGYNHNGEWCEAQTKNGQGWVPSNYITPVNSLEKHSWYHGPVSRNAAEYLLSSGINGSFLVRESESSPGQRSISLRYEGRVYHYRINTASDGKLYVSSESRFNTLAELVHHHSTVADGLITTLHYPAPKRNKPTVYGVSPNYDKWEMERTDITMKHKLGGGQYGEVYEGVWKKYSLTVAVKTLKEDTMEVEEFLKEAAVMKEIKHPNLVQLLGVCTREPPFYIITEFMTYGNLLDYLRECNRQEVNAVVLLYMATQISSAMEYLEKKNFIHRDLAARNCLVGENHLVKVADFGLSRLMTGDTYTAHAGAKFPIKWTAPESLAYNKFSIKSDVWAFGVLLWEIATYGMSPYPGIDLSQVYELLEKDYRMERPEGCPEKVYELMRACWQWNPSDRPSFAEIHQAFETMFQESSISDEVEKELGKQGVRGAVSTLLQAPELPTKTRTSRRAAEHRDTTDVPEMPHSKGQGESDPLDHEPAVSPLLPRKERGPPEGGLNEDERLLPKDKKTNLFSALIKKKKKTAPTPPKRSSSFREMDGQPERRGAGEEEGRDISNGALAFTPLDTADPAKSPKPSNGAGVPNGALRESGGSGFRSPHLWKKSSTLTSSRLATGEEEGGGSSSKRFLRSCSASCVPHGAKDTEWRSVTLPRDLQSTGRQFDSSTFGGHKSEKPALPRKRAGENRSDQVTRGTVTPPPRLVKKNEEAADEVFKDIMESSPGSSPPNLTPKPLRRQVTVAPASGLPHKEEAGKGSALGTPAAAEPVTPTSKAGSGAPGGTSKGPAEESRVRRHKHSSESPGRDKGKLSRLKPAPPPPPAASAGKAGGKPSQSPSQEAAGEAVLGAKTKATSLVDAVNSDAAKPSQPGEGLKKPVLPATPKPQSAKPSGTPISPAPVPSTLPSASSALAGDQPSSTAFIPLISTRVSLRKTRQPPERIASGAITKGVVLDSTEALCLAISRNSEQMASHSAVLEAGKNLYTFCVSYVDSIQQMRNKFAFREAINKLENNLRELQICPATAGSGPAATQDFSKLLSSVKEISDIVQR

Sequence of Flt1(h) (P17948 27-1338): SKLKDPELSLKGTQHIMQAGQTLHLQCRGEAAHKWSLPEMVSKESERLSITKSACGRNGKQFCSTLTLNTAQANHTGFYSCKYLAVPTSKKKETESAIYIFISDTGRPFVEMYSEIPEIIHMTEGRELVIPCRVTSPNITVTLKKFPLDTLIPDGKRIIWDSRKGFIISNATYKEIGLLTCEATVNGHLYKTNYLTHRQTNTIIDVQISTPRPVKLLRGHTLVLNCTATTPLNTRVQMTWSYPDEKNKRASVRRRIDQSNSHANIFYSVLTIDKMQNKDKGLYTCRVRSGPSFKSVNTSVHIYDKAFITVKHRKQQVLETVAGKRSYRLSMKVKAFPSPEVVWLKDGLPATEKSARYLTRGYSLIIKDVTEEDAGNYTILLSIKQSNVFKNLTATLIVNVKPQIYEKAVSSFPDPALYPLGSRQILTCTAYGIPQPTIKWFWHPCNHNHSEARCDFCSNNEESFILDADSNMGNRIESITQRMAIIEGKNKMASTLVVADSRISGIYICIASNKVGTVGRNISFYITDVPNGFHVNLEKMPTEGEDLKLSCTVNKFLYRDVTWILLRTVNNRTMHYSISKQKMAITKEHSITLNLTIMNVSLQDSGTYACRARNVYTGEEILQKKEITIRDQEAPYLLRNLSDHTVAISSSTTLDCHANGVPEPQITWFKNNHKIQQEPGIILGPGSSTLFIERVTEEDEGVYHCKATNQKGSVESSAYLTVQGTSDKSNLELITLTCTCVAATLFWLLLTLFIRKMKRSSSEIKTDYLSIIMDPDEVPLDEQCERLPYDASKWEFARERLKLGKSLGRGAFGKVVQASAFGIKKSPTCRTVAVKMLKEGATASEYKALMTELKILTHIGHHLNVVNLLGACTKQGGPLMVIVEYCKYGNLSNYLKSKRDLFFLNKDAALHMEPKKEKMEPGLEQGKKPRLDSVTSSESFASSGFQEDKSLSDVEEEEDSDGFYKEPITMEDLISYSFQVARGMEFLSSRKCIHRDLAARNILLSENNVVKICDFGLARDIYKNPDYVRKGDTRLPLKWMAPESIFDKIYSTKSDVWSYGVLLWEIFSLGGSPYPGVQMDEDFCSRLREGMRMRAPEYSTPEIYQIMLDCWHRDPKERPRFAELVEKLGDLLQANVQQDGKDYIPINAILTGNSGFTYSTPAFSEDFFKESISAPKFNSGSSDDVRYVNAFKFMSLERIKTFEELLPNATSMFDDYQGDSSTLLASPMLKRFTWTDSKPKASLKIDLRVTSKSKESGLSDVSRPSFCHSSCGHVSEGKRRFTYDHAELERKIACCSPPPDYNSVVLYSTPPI
Sequence of CDK6/cyclinD3(h) (Q00534 whole entry): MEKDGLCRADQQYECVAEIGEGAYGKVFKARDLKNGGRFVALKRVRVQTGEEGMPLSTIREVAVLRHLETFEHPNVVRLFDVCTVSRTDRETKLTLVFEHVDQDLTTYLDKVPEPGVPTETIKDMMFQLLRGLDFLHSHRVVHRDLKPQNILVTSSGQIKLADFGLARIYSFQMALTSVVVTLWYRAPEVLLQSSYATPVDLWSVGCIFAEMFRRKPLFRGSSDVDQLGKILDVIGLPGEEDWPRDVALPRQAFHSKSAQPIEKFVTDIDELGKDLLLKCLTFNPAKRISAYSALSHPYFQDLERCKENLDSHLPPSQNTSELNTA
Sequence of CDK6/cyclinD3(h) (P30281 whole entry partner): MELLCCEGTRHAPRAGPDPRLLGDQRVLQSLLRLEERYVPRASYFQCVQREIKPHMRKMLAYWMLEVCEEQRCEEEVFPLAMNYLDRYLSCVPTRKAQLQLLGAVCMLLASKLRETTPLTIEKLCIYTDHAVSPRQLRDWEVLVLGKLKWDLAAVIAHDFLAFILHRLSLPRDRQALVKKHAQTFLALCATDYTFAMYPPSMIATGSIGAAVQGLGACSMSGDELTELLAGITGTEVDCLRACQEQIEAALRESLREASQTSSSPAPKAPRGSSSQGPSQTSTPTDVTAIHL
Sequence of MARK1(h) (Q9P0L2 whole entry): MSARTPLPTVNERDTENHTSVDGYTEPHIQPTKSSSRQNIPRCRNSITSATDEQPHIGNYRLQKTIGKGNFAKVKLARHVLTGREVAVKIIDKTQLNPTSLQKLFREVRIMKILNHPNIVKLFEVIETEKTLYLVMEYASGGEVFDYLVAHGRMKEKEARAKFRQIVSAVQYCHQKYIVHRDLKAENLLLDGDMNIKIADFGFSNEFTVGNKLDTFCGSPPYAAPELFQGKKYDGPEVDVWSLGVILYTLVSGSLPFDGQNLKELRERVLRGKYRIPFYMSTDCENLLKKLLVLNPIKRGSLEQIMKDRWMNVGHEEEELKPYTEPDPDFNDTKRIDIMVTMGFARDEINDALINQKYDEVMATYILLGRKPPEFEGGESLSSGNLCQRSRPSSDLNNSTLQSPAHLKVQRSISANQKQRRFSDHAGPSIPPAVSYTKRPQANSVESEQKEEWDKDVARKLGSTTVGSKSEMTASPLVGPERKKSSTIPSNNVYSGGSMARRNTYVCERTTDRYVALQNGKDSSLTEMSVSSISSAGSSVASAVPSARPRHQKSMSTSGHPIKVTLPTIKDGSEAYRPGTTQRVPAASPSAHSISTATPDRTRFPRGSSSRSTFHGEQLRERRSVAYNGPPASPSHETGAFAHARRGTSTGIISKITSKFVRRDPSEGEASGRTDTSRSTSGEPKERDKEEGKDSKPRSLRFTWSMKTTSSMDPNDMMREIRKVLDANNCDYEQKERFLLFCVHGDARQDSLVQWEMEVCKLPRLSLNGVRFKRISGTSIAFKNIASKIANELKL
Sequence of CaMKIIδ(h) (Q13557 whole entry): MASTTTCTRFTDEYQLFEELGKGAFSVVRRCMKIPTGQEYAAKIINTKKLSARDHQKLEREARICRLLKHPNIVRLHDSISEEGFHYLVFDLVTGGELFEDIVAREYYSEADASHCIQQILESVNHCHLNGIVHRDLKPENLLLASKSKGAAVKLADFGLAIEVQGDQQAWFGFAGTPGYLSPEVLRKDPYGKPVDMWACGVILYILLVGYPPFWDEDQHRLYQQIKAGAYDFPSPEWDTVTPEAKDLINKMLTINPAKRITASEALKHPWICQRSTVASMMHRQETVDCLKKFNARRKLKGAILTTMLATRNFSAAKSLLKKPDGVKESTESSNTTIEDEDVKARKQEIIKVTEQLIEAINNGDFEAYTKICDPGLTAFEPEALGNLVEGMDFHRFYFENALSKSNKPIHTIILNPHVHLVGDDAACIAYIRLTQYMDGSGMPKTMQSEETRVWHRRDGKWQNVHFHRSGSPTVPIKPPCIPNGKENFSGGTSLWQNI
Sequence of PAK2(h) (Q13177 whole entry): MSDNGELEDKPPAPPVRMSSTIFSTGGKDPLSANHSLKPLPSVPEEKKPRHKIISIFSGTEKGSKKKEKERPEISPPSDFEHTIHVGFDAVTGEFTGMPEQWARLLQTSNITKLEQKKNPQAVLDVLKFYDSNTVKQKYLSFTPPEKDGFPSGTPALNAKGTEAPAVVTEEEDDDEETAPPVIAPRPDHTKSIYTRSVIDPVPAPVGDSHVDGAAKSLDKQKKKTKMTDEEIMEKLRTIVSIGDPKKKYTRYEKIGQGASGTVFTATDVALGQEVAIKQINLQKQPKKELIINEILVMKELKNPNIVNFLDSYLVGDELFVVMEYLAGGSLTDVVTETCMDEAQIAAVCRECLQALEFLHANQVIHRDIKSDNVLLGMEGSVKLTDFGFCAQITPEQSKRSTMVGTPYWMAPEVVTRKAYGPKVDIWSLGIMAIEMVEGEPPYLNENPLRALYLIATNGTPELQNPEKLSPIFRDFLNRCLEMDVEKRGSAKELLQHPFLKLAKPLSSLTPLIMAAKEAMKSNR

Sequence	% activity (CaMKIIδ(h))	% activity (MARK1(h))	% activity (CDK6/cyclinD3(h))	% activity (Bmx(h))	% activity (Flt1(h))	% activity (MST2(h))	% activity (CDK2/cyclinA(h))	% activity (TAO2(h))	% activity (PAK2(h))	% activity (CK1δ(h))	% activity (Abl(h))
HRRIKAWLKKIKALARQLGVAA [MMI-0500]	1%	110%	23%	45%	27%	2%	87%	15%	44%	78%	16%
YARAAARQARAKALNRQLGVA [MMI-0200]	2%	–	100%	76%	96%	–	–	93%	69%	92%	–
KAFAKLAARLYRKALARQLGVAA [MMI-0400]	2%	120%	85%	26%	48%	11%	92%	74%	59%	93%	84%
FAKLAARLYRKALARQLGVAA [MMI-0300]	1%	132%	86%	–	69%	19%	86%	70%	65%	92%	69%
